Assay results: US20260062455A1 (INSTITUT PASTEUR, published 2026)

Experiments:
[1] = biological target: T1, MFSD2ACO expressed in HEK-293T.17 cells (LPC-analog transport assay) (human, UniProt Q8NA29 1-543); assay: cell-based or functional assay
T1 chain: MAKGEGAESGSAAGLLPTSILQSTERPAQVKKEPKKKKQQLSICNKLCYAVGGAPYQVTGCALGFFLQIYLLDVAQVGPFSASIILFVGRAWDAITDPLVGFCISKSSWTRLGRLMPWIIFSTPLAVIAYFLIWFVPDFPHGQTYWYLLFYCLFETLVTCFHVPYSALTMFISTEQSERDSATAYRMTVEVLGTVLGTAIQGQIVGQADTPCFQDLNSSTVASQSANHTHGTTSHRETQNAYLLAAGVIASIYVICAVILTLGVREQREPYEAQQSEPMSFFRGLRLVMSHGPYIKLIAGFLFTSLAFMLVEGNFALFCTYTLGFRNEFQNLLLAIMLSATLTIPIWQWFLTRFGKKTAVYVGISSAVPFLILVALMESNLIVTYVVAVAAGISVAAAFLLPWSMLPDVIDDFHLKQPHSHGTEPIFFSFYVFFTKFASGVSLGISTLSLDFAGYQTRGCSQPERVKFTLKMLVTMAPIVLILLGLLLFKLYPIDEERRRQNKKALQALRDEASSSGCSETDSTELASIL

[2] = biological target: T2, GFP-MFSD2ACO (N-terminal FLAG-tag/GFP fusion of MFSD2ACO, detergent-solubilised lysate) (human, UniProt Q8NA29 1-543); assay: titration of SYNC2-mCherry lysate onto GFP-MFSD2A captured on anti-FLAG resin in DDM/CHS at 4 °C; eluted mCherry/GFP fluorescence fitted to a quadratic binding equation
T2 construct: The methods say only 'MFSD2A'; also called MFSD2A-GFP; not shown: N-terminal FLAG-tag, GFP and PreScission protease cleavage site
T2 chain: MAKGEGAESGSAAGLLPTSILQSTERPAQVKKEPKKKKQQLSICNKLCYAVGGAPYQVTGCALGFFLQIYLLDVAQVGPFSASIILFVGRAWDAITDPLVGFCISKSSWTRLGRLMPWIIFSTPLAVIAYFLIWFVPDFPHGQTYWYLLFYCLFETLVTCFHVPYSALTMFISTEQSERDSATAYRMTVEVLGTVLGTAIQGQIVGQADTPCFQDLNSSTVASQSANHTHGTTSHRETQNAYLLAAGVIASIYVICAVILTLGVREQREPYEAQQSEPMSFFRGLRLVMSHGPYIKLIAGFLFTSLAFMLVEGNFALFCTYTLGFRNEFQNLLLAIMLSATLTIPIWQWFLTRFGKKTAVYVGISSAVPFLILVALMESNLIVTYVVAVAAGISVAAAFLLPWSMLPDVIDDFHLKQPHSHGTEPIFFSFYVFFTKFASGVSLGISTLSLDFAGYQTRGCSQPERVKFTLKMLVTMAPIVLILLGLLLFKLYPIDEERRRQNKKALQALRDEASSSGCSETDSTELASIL
Procedure: SYNC2 binding to MFSD2A was assayed in clear lysates of detergent-solubilized HEK-293F cells expressing mCherry (C-terminal) and GFP (N-terminal) fusion constructs of SYNC2 and MFSD2A, respectively, that enable protein quantification. Clear cells lysates were obtained by 1-hour solubilization in lysis buffer containing 50 mM HEPES pH 7.4, 200 mM NaCl, 5% v/v glycerol, 1 mM EDTA, protease-inhibitor cocktail, 1% DDM, and 0.2% CHS, followed by centrifugation (3,800g, 20 min). SYNC2-mCherry and GFP-MFSD2A protein concentrations in lysates were determined using purified standards in a micro-plate reader (CLARIOstar-Plus) set at 570/620 and 470/514 (λexcitation/λemission), respectively. MFSD2A-GFP lysate at 500 nM was incubated with 2 ml anti-FLAG M2 resin for 1 hour, fractionated in 8 equal parts placed on gravity columns and washed with 1 ml of wash buffer (50 mM HEPES pH 7.4, 200 mM NaCl, 5% (v/v) glycerol, 0.03% DDM, and 0.006% CHS). SYNC2-mCherry was added from a calibrated stock at 2 μM, and equilibrated for 1 hour. […] Eluted protein was transferred to a 96-well flat-bottom black plate for quantification of GFP and mCherry fluorescence. SYNC-mCherry fluorescence background was determined from samples with anti-FLAG resin that lack MFSD2A-GFP bound. SYNC2-mCherry subtracted fluorescence was fitted to a quadratic binding equation using Sigma Plot (Systat).

[3] = biological target: T3, MFSD2ACO (thermostable consensus MFSD2A mutant), purified in detergent (human, UniProt Q8NA29 1-543); assay: cryo-EM 2D classes and 3D reconstructions of the purified complex; 3.6 Å map of SYNC2SU-CO bound to MFSD2ACO
T3 construct: Full-length transporter expressed in HEK-293F with an N-terminal FLAG-tag, GFP and PreScission site; also called MFSD2A consensus; MFSD2A consensus design
T3 chain: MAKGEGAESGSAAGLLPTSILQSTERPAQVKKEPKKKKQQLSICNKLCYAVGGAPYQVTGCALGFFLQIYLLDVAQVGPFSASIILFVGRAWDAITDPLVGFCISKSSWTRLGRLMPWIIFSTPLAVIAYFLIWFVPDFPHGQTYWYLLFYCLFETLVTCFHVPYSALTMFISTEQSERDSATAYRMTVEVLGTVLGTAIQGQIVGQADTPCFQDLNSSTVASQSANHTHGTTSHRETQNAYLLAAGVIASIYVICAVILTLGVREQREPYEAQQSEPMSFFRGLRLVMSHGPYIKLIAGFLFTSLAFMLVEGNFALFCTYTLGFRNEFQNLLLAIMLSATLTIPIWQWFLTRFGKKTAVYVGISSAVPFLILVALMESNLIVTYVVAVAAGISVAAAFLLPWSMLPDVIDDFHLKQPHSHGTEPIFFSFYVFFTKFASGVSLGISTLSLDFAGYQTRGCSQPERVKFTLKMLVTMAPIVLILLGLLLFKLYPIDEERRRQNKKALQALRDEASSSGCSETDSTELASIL
Source text: For cryo-EM structural determination of MFSD2ACO-SYNC2CO complex, the inventors used SYNC2CO-C43S (SYNC2_CO-C43S) mutant to avoid detachment of surface and transmembrane subunits upon binding to MFSD2ACO. […] However, high flexibility within the complex precluded high-resolution 3D reconstructions. To overcome this problem, the inventors used a smaller box size in order to extract individual components, effectively increasing particle number and sample homogeneity, as it was recently shown in cryo-EM structure determination of human CD20 bound to divalent Fab fragments (Kumar et al., 2020). This approach enabled particle averaging over the three MFSD2ACO molecules in the complex, yielding a cryo-EM map at an overall 3.6 Å resolution of SYNC2_SU-CO bound to MFSD2ACO (FIG. 1F; Table 1; FIG. 7, 8). […] Trimeric SYNC2TM in the post-fusion state was not resolved in 3D cryo-EM reconstructions, likely due to lower number of particles, as well as alignment problems of micelles containing only three flexible transmembrane helices.
MFSD2ACO-SYNC2_CO-C43S purified complex was applied to glow-discharged Au 200 mesh Quantifoil R1.2/1.3 holey carbon grids (Quantifoil), and vitrified using Vitrobot Mark IV (ThermoFisher). Typically, 4 μl of sample at 1.2-1.5 mg/ml were applied to the grids, and the Vitrobot chamber was maintained at 100% humidity and 4° C. […]

B1: SYNC2SU-CO (soluble thermostable consensus SYNC2 fragment with C43S), purified, C-terminal EPEA-tag (ligand)
chain: AYRHPDFPLLEKAQQLLQSTGSPYSTNSWLCTSSSTETPGTAYPASPREWTSIEAELHISYRWDPNLKGLMRPANSLLSTVKQDFPDIRQKPPIFGPIFTNINLMGIAPICVTAKRKNGTNVGTLPSTVCNVTFTVDPNQQTYQTYTHNQFRHQPRFPKPPNITFPQGTLLDKSTRFCQGRPSSCSTRNFWFRPADYNQCLQISNLSSTAEWVLLDQTRNSLFWENKTKGANQSQTPCVQVLAGMTIATSYLGISAVSEFFGTSLTPLFHFHISTCLKTQGAFYICGQSIHQCLPSNWTGTCTIGYVTPDIFIAPEPEA
half-maximal inhibitory concentration (IC50) of Na+-dependent LPCNBD transport in cells [1]: ~200 nM

B2: SYNC2CO-C43S-mCherry (C-terminal mCherry fusion, detergent-solubilised lysate) (ligand)
chain: AYRHPDFPLLEKAQQLLQSTGSPYSTNSWLCTSSSTETPGTAYPASPREWTSIEAELHISYRWDPNLKGLMRPANSLLSTVKQDFPDIRQKPPIFGPIFTNINLMGIAPICVTAKRKNGTNVGTLPSTVCNVTFTVDPNQQTYQTYTHNQFRHQPRFPKPPNITFPQGTLLDKSTRFCQGRPSSCSTRNFWFRPADYNQCLQISNLSSTAEWVLLDQTRNSLFWENKTKGANQSQTPCVQVLAGMTIATSYLGISAVSEFFGTSLTPLFHFHISTCLKTQGAFYICGQSIHQCLPSNWTGTCTIGYVTPDIFIAPGNLSLPIPIYGNSPLPRVRRAIHFIPLLAGLGILAGTGTGIAGITKASLTYSQLSKEIANNIDTMAKALTTMQEQIDSLAAVVLQNRRGLDMLTAAQGGICLALDEKCCFWVNQSGKVQDNIRQLLNQASSLRERATQGWLNWEGTWKWFSWVLPFIGPLVSLLLLLLFGPCLLNLITQFVSSRLQAIKLQTNLSAGRHPRNIQESPF
notes: The methods say only 'SYNC2'; also called SYNC2-mCherry; SYNC-mCherry; not shown: C-terminal mCherry
Kd [2]: ~100 nM

B3: SYNC2CO-C43S (thermostable consensus SYNC2 mutant with additional mutation C43S), purified in detergent (ligand)
chain: AYRHPDFPLLEKAQQLLQSTGSPYSTNSWLCTSSSTETPGTAYPASPREWTSIEAELHISYRWDPNLKGLMRPANSLLSTVKQDFPDIRQKPPIFGPIFTNINLMGIAPICVTAKRKNGTNVGTLPSTVCNVTFTVDPNQQTYQTYTHNQFRHQPRFPKPPNITFPQGTLLDKSTRFCQGRPSSCSTRNFWFRPADYNQCLQISNLSSTAEWVLLDQTRNSLFWENKTKGANQSQTPCVQVLAGMTIATSYLGISAVSEFFGTSLTPLFHFHISTCLKTQGAFYICGQSIHQCLPSNWTGTCTIGYVTPDIFIAPGNLSLPIPIYGNSPLPRVRRAIHFIPLLAGLGILAGTGTGIAGITKASLTYSQLSKEIANNIDTMAKALTTMQEQIDSLAAVVLQNRRGLDMLTAAQGGICLALDEKCCFWVNQSGKVQDNIRQLLNQASSLRERATQGWLNWEGTWKWFSWVLPFIGPLVSLLLLLLFGPCLLNLITQFVSSRLQAIKLQTNLSAGRHPRNIQESPF
modifications: N-glycans at N133, N146, N177, N220, N241, N247 and N312 (all seven predicted sites carry glycans in the structure)
notes: Trimeric full-length envelope protein; also called SYNC2 consensus C43S; SYNC2SU-CO (its surface subunit as resolved in the cryo-EM map)
binding result [3]: binds
